Source: the supplement of paper PMC10724198
± gives the standard deviation of the averaged measurements.

Test system: Saccharomyces cerevisiae
Test: protein stability index of tFT-peptide fusion (C-terminal peptide) (PSI (0-1 scale)); higher = more stable (slower turnover)
Conditions: temperature: 30 C
Procedure: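 MPS profiling in S. cerevisiae of the yeast C-terminome library: the last 12 aa of each annotated ORF are fused to the C-terminus of a sfGFP-mCherry timer, after a GGGS linker. Cells are FACS-sorted into 8 mCherry/sfGFP bins and deep-sequenced. PSI runs from 0 (unstable) to 1 (stable); wild type and das1Δ backgrounds, two technical replicates each.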

[1] = genetic background: das1 deletion

Sequence	protein stability index [1]	protein stability index (genetic background: wild type)
EIAADDTKKQEK [SOK2 C-terminal 12 aa]	0.672 ± 0.027	0.684 ± 0.074
EIIDNWEKYEQS [FAS1 C-terminal 12 aa]	0.706 ± 0.011	0.7 ± 0.04
EIKHVFTGVYGG [ASP1 C-terminal 12 aa]	0.68 ± 0.006	0.686 ± 0.0042
EKHSFSTTQQVV [NRT1 C-terminal 12 aa]	0.666 ± 0.019	0.664 ± 0.028
EKKKIFKGNKTD [YLR030W C-terminal 12 aa]	0.696 ± 0.036	0.669 ± 0.012
EKMKKNQSIGWF [MRPL25 C-terminal 12 aa]	0.756 ± 0.02	0.73159 ± 0.00064
EKSSVKRPCVKK [RKM4 C-terminal 12 aa]	0.674 ± 0.02	0.701 ± 0.0034
EKTVNFIKTFGV [GUT2 C-terminal 12 aa]	0.6956 ± 0.0026	0.71 ± 0.035
ELKEGRTFLGRS [APQ13 C-terminal 12 aa]	0.703 ± 0.014	0.695 ± 0.028
ELSDLENKLGKK [RCF1 C-terminal 12 aa]	0.6843 ± 0.0062	0.6991 ± 0.0033
ELSNNLNVDEFV [LRS4 C-terminal 12 aa]	0.692 ± 0.0034	0.687 ± 0.034
ELTDFKYPSNYE [PUT2 C-terminal 12 aa]	0.6787 ± 0.0024	0.711 ± 0.066
EMRKRFFEKDLL [RAP1 C-terminal 12 aa]	0.696 ± 0.022	0.723 ± 0.059
ENIEVILSNGRM [SNF12 C-terminal 12 aa]	0.676 ± 0.03	0.689 ± 0.037
ENKLWNTEYFFC [ECM34 C-terminal 12 aa]	0.738 ± 0.018	0.6655 ± 0.0018
ENLENKINNLSK [STF1 C-terminal 12 aa]	0.709 ± 0.025	0.698 ± 0.034
ENNDNDDNDGLF [CTR9 C-terminal 12 aa]	0.707 ± 0.037	0.701 ± 0.048

Sequence	protein stability index [1]	protein stability index (genetic background: wild type)
ENNEKFLNIRLY [CDC24 C-terminal 12 aa]	0.71 ± 0.026	0.668 ± 0.013
ENVLNKEGVLQK [GIN4 C-terminal 12 aa]	0.682 ± 0.012	0.734 ± 0.047
EPAYDGASVEQQ [THR1 C-terminal 12 aa]	0.688 ± 0.0074	0.6724 ± 0.0055
EPEAEQAVEDTA [HSP30 C-terminal 12 aa]	0.685 ± 0.018	0.6594 ± 0.0041
EPRYNDDAQVSD [KCS1 C-terminal 12 aa]	0.684 ± 0.018	0.663 ± 0.064
EREGGDEHDDMA [PWP1 C-terminal 12 aa]	0.684 ± 0.015	0.708 ± 0.035
ERRLNAIINGEV [YTH1 C-terminal 12 aa]	0.689 ± 0.024	0.685 ± 0.034
ESDHPTLADNSV [MRL1 C-terminal 12 aa]	0.6955 ± 0.0041	0.6912 ± 0.00095
ESEKELYNATLA [NHP6A C-terminal 12 aa]	0.697 ± 0.011	0.718 ± 0.0079
ESGLQSINESTL [ALY2 C-terminal 12 aa]	0.7074 ± 0.0047	0.706 ± 0.05
ESSAFEYPGGRL [BOI1 C-terminal 12 aa]	0.7086 ± 0.0049	0.69 ± 0.0096
ESTPKDAARSTN [ASF1 C-terminal 12 aa]	0.69 ± 0.025	0.705 ± 0.028
ETNNVFQDAILR [DOC1 C-terminal 12 aa]	0.698 ± 0.013	0.683 ± 0.017
ETPLLYNDTHTP [IES5 C-terminal 12 aa]	0.696 ± 0.042	0.695 ± 0.009
ETYGSKIVYRFS [GAL10 C-terminal 12 aa]	0.692 ± 0.031	0.7035 ± 0.0018
EVAKSLTLQYDV [CNB1 C-terminal 12 aa]	0.699 ± 0.0073	0.68 ± 0.015
EVENDRQIHRML [IDI1 C-terminal 12 aa]	0.6924 ± 0.0013	0.682 ± 0.01
